In publication PMC7608914:

Target: Alexa488-labeled Nuc165 (human)
Test: fluorescence polarisation; HPF1 titrated from 16.8 μM to 0 μM into 5 nM Alexa488-labeled Nuc165; 50 mM Tris-HCl pH 8, 50 mM NaCl, 1 mM MgCl2, 0.1 mM EDTA, 0.1 mM TCEP, 0.01% NP-40; Hill model

B1: Histone PARylation Factor 1 (natural protein)
chain: MVGGGGKRRPGGEGPQCEKTTDVKKSKFCEADVSSDLRKEVENHYKLSLPEDFYHFWKFCEELDPEKPSDSLSASLGLQLVGPYDILAGKHKTKKKSTGLNFNLHWRFYYDPPEFQTIIIGDNKTQYHMGYFRDSPDEFPVYVGINEAKKNCIIVPNGDNVFAAVKLFLTKKLREITDKKKINLLKNIDEKLTEAARELGYSLEQRTVKMKQRDKKVVTKTFHGAGLVVPVDKNDVGYRELPETDADLKRICKTIVEAASDEERLKAFAPIQEMMTFVQFANDECDYGMGLELGMDLFCYGSHYFHKVAGQLLPLAYNLLKRNLFAEIIEEHLANRSQENIDQLAA
In the case of B1, the Kd is reported as 1450 nM.
